# According to the DeepSol protein solubility set:
# Test: soluble on expression in E. coli; label from the status in PepcDB or PDB records
row,Sequence,soluble on expression in E. coli
1,MIHYKIAPSPLDHEWHILLKFTQDNDFPIEISLPNWVPGSYLIRDFSRHITSIHASCNGTSMPLEQIAKNRWHTAAVRGEWQIRYTVYAFDLSVRGSFLTTERGFFDGSCLFLKVEGTETLPHRLELTGIPPEWRIATTLPETGRLVFQTASYDELIDRPVEMGLIEFLDFEAAGIPHTIALNGIYPDFDRDRLVSDIKKICETELAMFSSPAPFEKYLFLLHVGDHIYGGLEHTDSTALLADRHSLPPYGMTDADDAYTTLLGLFSHEYFHAWNVKSIKPAAFAPYDLDKENYTEQLWAFEGITSYYDDLFLARSRTISPEFYLNLLAQGITRVQQTRGRLRQTLAESSFTAWNKFYKPDENSPNAIVSYYQKGALAALCLDLIIRNRSNGRHSLDTVMDKLYREWRDTHSGIPEKHWQIRCQEITGLDLTDFFQTALYSTEDLPLAECLATTGVKLTFLPLPRQHGGGYAEHIFPIPPTGDFGARFKQNADHIVLTHVFNGGSAESAALCPQDKIIALDGYACTDFAAQWARYHVRAKINIHFFRAGILRQTVLTVQATAADTAILHITDRNLLENWLFGLEHHHHHH,not soluble
2,MIIAGVDIGNSTTEVALAKVNGDEIRFLASGISNTTGIKGTPQNVEGVRHALEDAVRKANLTIKDIDLLRINEATPVISDIAMEAITETIITESTMIGHNPTTPGGVGLGIGITIPIFELEKCKHGEEVIVVIPKNVDYEDAAKIINNAFSKGVEVKGAIAQKDDGVLIATRLQRRIPIVDEVKQIEKVPIGMLACVEVAEPGYTIKTLSNPYGIASVFNLTAEETKNIVPVARALIGNRSAVVIRTPKGEVQERKIPAGTLIIKGNNRTFTVDIEEGAEAIMSAVESTWPLVDAEGTPGTNVGGLIARIKETMADVTGQDSSNIQIQDVLAVDTLVRQKVKGGIAEEFSSENAVALAAMVKSSKLPMEKVAQKIEQEIGIAVEIAGIEANMAIIGALTTPGTELPLAILDLGGGSTDAALMTKNGEVKSVHMAGAGEMVNMLIKTELGIEDKYLVEDIKKYPVCRVESLFSIRLEDGTVRFFKEPLDPRTFARVCLLREDGLLPLPPELNMEKVINVRRNAKRKVFVTNALRALSKVAPAGNIRLIDFVVMVGGSALDFEIPEMISDTLAGYGIVAGRGNIRNVEGPRNAVATGLVLSRCKRK,not soluble
3,MIIKRTPQAASPLASWLSYLENLHSKTIDLGLERVSLVAARLGVLKPAPFVFTVAGTNGKGTTCRTLESILMAAGYKVGVYSSPHLVRYTERVRVQGQELPESAHTASFAEIESARGDISLTYFEYGTLSALWLFKQAQLDVVILEVGLGGRLDATNIVDADVAVVTSIALDHTDWLGPDRESIGREKAGIFRSEKPAIVGEPEMPSTIADVAQEKGALLQRRGVEWNYSVTDHDWAFSDAHGTLENLPLPLVPQPNAATALAALRASGLEVSENAIRDGIASAILPGRFQIVSESPRVIFDVAHNPHAAEYLTGRMKALPKNGRVLAVIGMLHDKDIAGTLAWLKSVVDDWYCAPLEGPRGATAEQLLEHLGNGKSFDSVAQAWDAAMADAKAEDTVLVCGSFHTVAHVMEVIDARRSGGK,soluble
4,MIIPEYGRTLTPEEWRPVVDEMLEATHIIFTTHENSDGDGLGSQVALALALKALGKEVAIFNPTEVPPNYLFLKELHEINLFRDRDEESMQEFFLADLLVVLDANLHDRIGRLWPHVEFARQMSRLKVLCIDHHLEPEDFADITVCETYASSTGELVCDLVTALELRTGQQLFTPEVASALYAAIMTDTGSFRFPKTTPYTYRLAGMLVEKGADPELVYDRIYNALTPEALKLLGLSLSNIKIIENGLISWLFITQEMLEQTGSKLFDTDLIIRYLLSVPTVKVAVLLVEMQDGRCKVSFRSRGKIYVNQLAKHYGGGGHMNAAGCLLRMSAEKAQLVILEDVRKFTLEQVDS,soluble
5,MIIRIVQNIQRINKEGNAPLYISFYLGKEKVVIPCKLSVPTTKFDSKTGMLRGTNKEAKDINLIIERLKAKVNDILVKHRLKNLTLNKEAFMREYNNPSDFKSFHDFVASYMKTYSRRLEIGTFRHHKSCMRKFKEYCEGLQFHELTEDFLRDYLIYMKKTLCNADSTAQRNLSTIKIYVSAAIKKGYMENDPFKDFGVKRIKSNIDYLTEEELIKFISLYYDRRLPERLERTLGFFLFMCFTSLHISDARHVCLEQINNGILTYYRIKNRNCKPEAIKIPLSIPAFKIIEELQGKRKEGH,not soluble
6,MIKEKYTFDDLVEIMKILRSENGCPWDRVQNHESLKKYLIEETYEVLEVIDLNDKKRLCEELGDLLLQIVFHAQIASEDNEFDINDVITGICRKMVQRHTHVFGTDKADTAEEVLANWEEIKKKEKGMESQTEVLKSVPSNLPALMRSYKVQQKASQVGFDWKDIDSVFEKVYEEINELRDVYKSKDVERINDELGDVLFSIVNLSRFLKVQPELALMGSVNKFIERFEFIEKEAAKSGRTLSEMSLDEMDELWNKAKTKI,soluble
7,MIKLIATDMDGTFLAEDGTYNQEQLAALLPKLAEKGILFAVSSGRSLLAIDQLFEPFLDQIAVIAENGSVVQYRGEILFADMMTKEQYTEVAKKILANPHYVETGMVFSGQKAAYILKGASEEYIQKTKHYYANVKVINGFEDMENDAIFKVSTNFTGHTVLEGSDWLNQALPYATAVTTGFDSIDIILKEVNKGFGMEHLCQALGIKKAETIAFGDNFNDYQMLEFAGRAIATENARPEIKVISDQVIGHCNDGAVLTYLKGLV,not soluble
8,MIKTDLNDFAWFVHVVEEGGFAAAGRALDEPKSKLSRRIAQLEERLGVRLIQRTTRQFNVTEVGQTFYEHCKAMLVEAQAAQDAIAALQVEPRGIVKLTCPVTLLHVHIGPMLAKFMARYPDVSLQLEATNRRVDVVGEGVDVAIRVRPRPFEDSDLVMRVLADRGHRLFASPDLIARMGIPSAPAELSHWPGLSLASGKHIHRWELYGPQGARAEVHFTPRMITTDMLALREAAMAGVGLVQLPVLMVKEQLAAGELVAVLEEWEPRREVIHAVFPSRRGLLPSVRALVDFLTEEYARMVEE,not soluble
9,MIKVDQHYFELIENYRECFNEEQFIARYSDILDKYDYIVGDYGYDQLRLKGFYKDSNKKAEMSKRFSNIQDYIFEYCNFGCPYFVLRHLSKQEVKKLIEEVHPSDVIDDDNKLQDVKIKPTIQDTEHLEHHHHHH,not soluble
10,MILDADIKTQLSQYLQLMENDILLKVSAGNDDVSKDMLALVDELATMSSKITVEKVELERTPSFSVNRPGEDTGVVFAGIPLGHEFTSLVLALLQVSGRAPKVEQKLIDQIKNIQGEYHFESYISLSCHNCPDVVQALNVMSVLNSGITHTMIDGAAFKEEVESKDIMAVPTVFLNGESFGSGRMTLEEILAKMGNGPDASELSDKDPYDVLVVGGGPAGASAAIYAARKGIRTGIVAERFGGQVMDTMGIENFISVKRTEGPKLVASLEEHVKEYDIDVMNLQRAKRLEKKELIEVELENGAILKSKSVIVSTGARWRNVGVPGEAEFKNKGVAYCPHCDGPLFTGKDVAVIGGGNSGIEAAIDLAGIVKHVTVLEFMPELKADAVLQERLNSLPNVTVLKNVQTKEITGTDKVNGISYIDRETEEVHHVELQGVFVQIGLVPNTDWLGETVERVRGEIVTDKHGATNVPGVFAAGDCTNNPYKQIIISMGSGANAALGAFDYLIRN,not soluble
11,MILIGDSGSTKTDWCIAKEGKSLGRFQTSGINPFQQDRNEIDTALRSEVLPAIGQKASSIRAVYFYGAGCTPAKAPMLNEALDSMLPHCDRIEVAGDMLGAARALCGDSEGIACILGTGSNSCLFDGREIKANVSPLGYILGDEGSGAVLGRLFIGSLLKGQMPEGLCEAFLQEYGLTSADIIESVYRKPFPNRFLAGFSPFIAQHLDIPAVYSLVQNSFDDFLVRNVLRYNRPDLPLHFIGSVAFHYREVLSSVIKKRGLTLGSVLQSPMEGLIQYHHNNHVLEHHHHHH,soluble
12,MILKLKYYREAMNLTQEELARHAKVSVAMVQSMENGRRKGSTDTILKLSDALNVTVDDLLRGNNMTISHKKETSK,not soluble
13,MILRASVLSALLLVGLGAAPKHSVSANDKRMQDNLVSVIEKQTNKKVRILEIKPLKSSQDLKMVVIEDPDTKYNIPLVVSKDGNLIIGLSNIFFSNKSDDVQLVAETNQKVQALNATQQNSAKLNAIFNEIPADYAIELPSTNAANKDKILYIVSDPMCPHCQKELTKLRDHLKENTVRMVVVGWLGVNSAKKAALIQEEMAKARARGASVEDKISILEKIYSTQYDINAQKEPEDLRTKVENTTKKIFESGVIKGVPFLYHYKA,not soluble
14,MILTPPDTPFFLRNGNADTIAAKFLQRPAPAYRRELLPDSTGKTKVAYDFSDGISPDAPLVVLFHGLEGSSRSHYAVELMLAVRDRGWHGVVVHFRSCGGIANTAPVFYHLGDTAEIAFTLDTFAARYREIYAVGVSLGGNALAKYLGEQGKKALPQAAAVISAPVDAEAAGRRFDSGITRLLYTRYFLRTLIPKAKSLQGFQTAFAAGCKTLGEFDDRFTAPLHGFADRHDYYRQTSCKPLLKHVAKPLLLLNAVNDPFLPPEALPRADEVSEAVTLFQPAYGGHVGFVSSTGGRLHLQWLPQTVLSYFDSFRTNRR,not soluble
15,MILVTGGARSGKSRHAEALIGDAPQVLYIATSQILDDEMAARIQHHKDGRPAHWRTAECWRHLDTLITADLAPDDAILLECITTMVTNLLFALGGENDPEQWDYAAMERAIDDEIQILIAACQRCPAKVVLVTNEVGMGIVPENRLARHFRDIAGRVNQRLAAAADEVWLVVSGIGVKIK,soluble
16,MINDDILAHARQCAPAESCGYVVRTAQGERYFPCENLSAEPTMYFRISPEDYLNARNRGDIVALVHSHPDGKPCLSSADRTLQIQSGLDWWLVCDNRIHKFRCVPHLTGRQFEHGVTDCYTLFRDAYHLAGIDMPDFDREDDWWSQGKSLYLDHLEAAGFYRVNPEDAQPGDVLICCFGSPTPNHAAIYCGNGELLHHIPEQLSKREGYNDKWQRRTHSIWRHRQWCESAFTGIYNDLESASASA,not soluble
17,MINFEATELRLGLPGGNHGGEMAGKNNGKRGFSETVDLKLNLSSTAMDSVSKVDLENMKEKVVKPPAKAQVVGWPPVRSFRKNVMSGQKPTTGDATEGNDKTSGSSGATSSASACATVAYVKVSMDGAPYLRKIDLKLYKTYQDLSNALSKMFSSFTIGNYGPQGMKDFMNESKLIDLLNGSDYVPTYEDKDGDWMLVGDVPWEMFVDSCKRIRIMKGSEAIGLAPRALEKCKNRS,soluble
18,MINIHRFVQNRFLRTRHAHPFGIVLDIDGVLFRGRNMLPRVKEAFSLITDKKGNFVVPTVFLTNGTNSTEKNKAAQLSEQLGFRVPADNVLMSHSPLRMFTDLHDKQVLVVGQKNARAIAKGIIFFRVGFKKVTTIDHLVKWFPHLDCTDFSRKLVDPKETEAARKRFRPIEAIVMLGEPLKWETSLQLMLDCVLTYGKMDTMVFPLIAGGRRPDHIPIVACNVDLVWMADVASQLPRIGHGTFIHILDSLYEKLTGQHLQFRATLGKPTEVSYLHAAHRIQRQAKAMKLEDVKYVYVIGDNPMSDVLGARLFDRYLRHGGVGRFDHLDLEAFDVNDGEKPRVRTRNVVERCISILVETGVHQDHVHINGMVKPISALIDNLSKGEQLKLQLPDFVEYDLHAAIRTILRRECYR,not soluble
19,MINQDFILSQVVGGSLDAVAREMSATVTRTARSPLFNEAHDFTTGVFDLSGKKSRLVAQAPGCTLHLYAVVGAVDHLLDAFRYDLHPGDILLVNDPYHGGSHSLDWTIVMPVFYNRKPILLPAVRSHMADNGGPVAGGYNPRSKDIWHDGLRIPPLKIYERGEKRRDVFDLIVANNRLSHWLEGDLNAMIGACKVAASRIQTMLDKYGAEKVITAIDNRIQYTENRVRDEISSWPDGTYVGETFADHDFQGNRDIKVRATVTVKGSDLHIDFTGSSPQVKGFINSPLSNTTSFAFVGISTCCDEDIPINEGYMNPVTVTAPIGTVVNPQLPAPCGHATACVGAEIAEAVLQAISQCAPKRVGVNAHKLPLAYSHGKYDDGKPWVNLNFYGYTGGAGAAYETDGWGLYPPVMTGVILPSIEMTEVQYPSRVLKHEYTSDFTGAGRWRGTPGLDVQIQHLKESRTSVMMAGGRNTTKGFCGAGDSPSNKVIVGYGTDEAREIDETAFEVKMPVGGIIQFYRAGGGGWGNPLEREPEKVLDD,not soluble
